Measured values: PMC7506995 (EMBO Molecular Medicine, 2020)
Read-outs that look alike come from different tables or passages of the source.

Tests used:
[1] = biological target: T1, full-length recombinant mouse PrP (recPrP23-231) (Mus musculus, UniProt P04925); assay: ELISA; settings: both partners purified
T1 construct: source: recombinant, produced as described (Lysek & Wuthrich, 2004)

[2] = biological target: T2, human recPrP_(23-230) (Homo sapiens, UniProt P04156); assay: ELISA; settings: both partners purified
T2 construct: source: recombinant, produced as described (Lysek & Wuthrich, 2004)

[3] = biological target: T2, human recPrP_(23-230)
[4] = biological target: T3, peptide P17 (Mus musculus); assay: co-IP; settings: both partners purified
T3 chain: TWGQPHGGGWGQ

[5] = biological target: T4, full-length recombinant mouse PrP (recPrP_(23-231)) (Mus musculus, UniProt P04925); assay: SPR; […]; 25°C; 10 mM Tris/HCl pH 8.5, 500 mM NaCl, 3 mM EDTA, 0.05% Tween-20; 1:1 Langmuir fit; ProteOn XPR36; settings: both partners purified
T4 construct: source: recombinant, produced as described (Lysek & Wuthrich, 2004)

[6] = biological target: T1, full-length recombinant mouse PrP …; assay: ELISA; settings: both partners purified; remark: listed apart in the source

B1: Fab8 (Fab, V domains shown)
VH: QVQLVESGGGVVQPGRSLRLSCAASGFTFSSYGMHWVRQAPGKGLEWVAVISYEGSNKYYADSVKGRFTISRDNSKNTLYLQMNSLRAEDTAVYYCARHYGGRLDYWGQGTLVTVSS
VL: not shown
notes: source: E. coli BL21(DE3), purified (IMAC)
Q: Does B1 bind [1]?
A: binds

B2: Fab10 (Fab, V domains shown)
VH: QVQLVESGGGVVQPGRSLRLSCAASGFTFSSYGMHWVRQAPGKGLEWVAVISYEGSNKYYADSVKGRFTISRDNSKNTLYLQMNSLRAEDTAVYYCARHYGGWFDYWGQGTLVTVSS
VL: not shown
notes: as for B1
Q: Does B2 bind [1]?
A: binds

B3: Fab12 (Fab, V domains shown)
VH: QVQLVESGGGVVQPGRSLRLSCAASGFTFSSYGMHWVRQAPGKGLEWVAVISYEGSNKYYADSVKGRFTISRDNSKNTLYLQMNSLRAEDTAVYYCARHYGGQLDYWGQGTLVTVSS
VL: not shown
notes: as for B1
Q: Does B3 bind [1]?
A: binds

B4: Fab13 (Fab, V domains shown)
VH: QVQLVESGGGVVQPGRSLRLSCAASGFTFSSYGMHWVRQAPGKGLEWVAVISYEGSNKYYADSVKGRFTISRDNSKNTLYLQMNSLRAEDTAVYYCARVWSPDGYPGFDYWGQGTLVTVSS
VL: not shown
notes: as for B1
Q: Does B4 bind [1]?
A: binds

B5: Fab69 (Fab, V domains shown)
VH: QVQLVESGGGVVQPGRSLRLSCAASGFTFSSYGMHWVRQAPGKGLEWVAVISYEGSNKYYADSVKGRFTISRDNSKNTLYLQMNSLRAEDTAVYYCARVHPGVHYRPGGFDYWGQGTLVTVSS
VL: not shown
notes: as for B1
Q: Does B5 bind [1]?
A: binds

B6: Fab44 (Fab, V domains shown)
VH: QVQLVESGGGVVQPGRSLRLSCAASGFTFSSYGMHWVRQAPGKGLEWVAVISYEGSNKYYADSVKGRFTISRDNSKNTLYLQMNSLRAEDTAVYYCARVAYAVGSSYRSSSYSPGFDVWGQGTLVTVSS
VL: not shown
notes: as for B1
Q: Does B6 bind [1]?
A: binds

B7: DK_VH3-07 Fab (Fab, V domains shown)
VH: EVQLVESGGGLVQPGGSLRLSCAASGFTFSSYWMSWVRQAPGKGLEWVANIKQDGSEKYYVDSVKGRFTISRDNAKNSLYLQMNSLRAEDTAVYYCARSYGGYFDYWGQGTLVTVSS
VL: QSALTQPASVSGSPGQSITISCTGTSSDVGGYNYVSWYQQHPGKAPKLMIYEVSNRPSGVSNRFSGSKSGNTASLTISGLQAEDEADYYCTSYTSSSTHVVFGGGTKLTVL
notes: source: expressed in bacteria (pPE2 vector), purified
Q: How did the EC50 [2] turn out when B7 was run?
A: 62800 nM

Q: Does B7 bind [2]?
A: no binding (tested: Fabs tested starting from 3 μM)

B8: BB_VH3-21 (antibody, V domains shown)
VH: EVQLVESGGGLVKPGGSLRLSCAASGFTFSSYSMNWVRQAPGKGLEWVSSISSSSSYIYYADSVKGRFTISRDNAKNSLYLQMNSLRAEDTAVYYCARVSYGGYFDYWGQGTLVTVSS
VL: not shown
Q: Does B8 bind [3]?
A: binds

B9: BB_VH3-33 (antibody, V domains shown)
VH: QVQLVESGGGVVQPGRSLRLSCAASGFTFSSYGMHWVRQAPGKGLEWVAVIWYDGSNKYYADSVKGRFTISRDNSKNTLYLQMNSLRAEDTAVYYCAREHSYGGYFDYWGQGTLVTVSS
VL: not shown
Q: Does B9 bind [3]?
A: binds

B10: Fab71 (Fab, V domains shown)
VH: QVQLVESGGGVVQPGRSLRLSCAASGFTFSSYGMHWVRQAPGKGLEWVAVISYEGSNKYYADSVKGRFTISRDNSKNTLYLQMNSLRAEDTAVYYCARHVSYGGYFDYWGQGTLVTVSS
VL: not shown
notes: also called anti-OR_(51-91) Fab71; source: E. coli BL21(DE3), pPE2 vector, purified by IMAC (Ni-NTA)
Q: Does B10 bind [4]?
A: binds

Q: What about the Kd [5] of the same binder?
A: 6.2 nM

Q: And the koff [5]?
A: 0.00245 s⁻¹

B11: Fab71 (Fab, V domains shown)
VH: QVQLVESGGGVVQPGRSLRLSCAASGFTFSSYGMHWVRQAPGKGLEWVAVISYEGSNKYYADSVKGRFTISRDNSKNTLYLQMNSLRAEDTAVYYCARHVSYGGYFDYWGQGTLVTVSS
VL: not shown
notes: as for B1
Q: Which EC50 [6] does the source give for B11 here?
A: 24.9 nM

B12: BB_VH3-66 (antibody, V domains shown)
VH: EVQLVESGGGLVQPGGSLRLSCAASGFTVSSNYMSWVRQAPGKGLEWVSVIYSGGSTYYADSVKGRFTISRDNSKNTLYLQMNSLRAEDTAVYYCARSGSYGGYFDYWGQGTLVTVSS
VL: not shown
Q: Does B12 bind [3]?
A: binds

B13: DW_VH3-53 (antibody, V domains shown)
VH: EVQLVETGGGLIQPGGSLRLSCAASGFTVSSNYMSWVRQAPGKGLEWVSVIYSGGSTYYADSVKGRFTISRDNSKNTLYLQMNSLRAEDTAVYYCARVSYGGYYFDYWGQGTLVTVSS
VL: not shown
Q: Does B13 bind [3]?
A: binds

B14: Fab53 (Fab, V domains shown)
VH: QVQLVESGGGVVQPGRSLRLSCAASGFTFSSYGMHWVRQAPGKGLEWVAVISYEGSNKYYADSVKGRFTISRDNSKNTLYLQMNSLRAEDTAVYYCARVYVYRSYRHSSGYGYPGFDVWGQGTLVTVSS
VL: not shown
notes: as for B1
Q: Does B14 bind [1]?
A: binds

B15: Fab61 (Fab, V domains shown)
VH: QVQLVESGGGVVQPGRSLRLSCAASGFTFSSYGMHWVRQAPGKGLEWVAVISYEGSNKYYADSVKGRFTISRDNSKNTLYLQMNSLRAEDTAVYYCARVYPYPYVYAESDGSYPGFDVWGQGTLVTVSS
VL: not shown
notes: as for B1
Q: Does B15 bind [1]?
A: binds
